One may read the Kd as a measure of binding affinity in units of concentration.

This assay concerns the target T1, biotinylated human 4-1BB (recombinant Fc fusion protein of the extracellular domain of human 4-1BB) (human, UniProt Q07011 24-186, biotinylated (site not stated)).
T1 construct: Bought from BPS Bioscience; tie to the Fc fusion is by the Materials paragraph; also called h4-1BB; CD137; not shown: Fc part of the purchased fusion (BPS Bioscience)
The experiment in a line: SPR (ProteOn), biotinylated human 4-1BB on NLC chip, PBST. Here is the method:
Briefly, biotinylated human 4-1 BB was diluted in PBST (PBS, pH 7.4 containing 0.005% Tween 20®) and coated on a NLC chip (BioRad) to a level of around 320 resonance units (RU) (600 RU for single trace SPR measurements). The interaction of ankyrin repeat protein and h4-1 BB was then measured by injecting 200 μl running buffer (PBS, pH 7.4 containing 0.005% Tween 20®) containing serial dilutions of ankyrin repeat proteins covering a concentration range between 50 nM and 0.5 nM for multi-trace SPR measurements or 50 nM for single trace measurements (on-rate measurement), followed by a running buffer flow for at least 30 minutes at a constant flow rate of 100 μl/min (off-rate measurement). The regeneration was performed using 30 μl of 10 mM Glycine pH 2 followed by 30 μl of 124 mM H₃PO₄. The signals (i.e. resonance unit (RU) values) of the interspots and a reference injection (i.e. injection of running buffer only) were subtracted from the RU traces obtained after injection of ankyrin repeat protein (double-referencing). Based on the SPR traces obtained from the on-rate and off-rate measurements, the on- and off-rate of the corresponding ankyrin repeat protein—4-1 BB interaction was determined.
Dissociation constants (KD) were calculated from the estimated on- and off-rates using standard procedures known to the person skilled in the art.

B1: DARPin® protein #7 (designed binder)
chain: MRGSHHHHHHGSDLGSKLLNAARKGQDDEVRILLAAGADVNAKDYYGQTPLHLAAVFGHLEIVEVLLKAGADVNAKDVLGRTPLHVAAYAGHLEIAEVLLKAGADVNAQDFDGFTPADLAAYVGLEDIAEVLQKLN
For B1, the dissociation constant Kd was determined as 0.54 nM.

B2: DARPin® protein #4 (designed binder)
chain: MRGSHHHHHHGSDLGKKLLEAARAGQDDEVRELLKAGADVNAKDTYGETPLHLAAWKGHLEIVEVLLKAGADVNAKDSIGITPLHVAAHHGHLEIVEVLLKAGADVNAKDKWGRTPLHLAALLGHLEIAEVLLKAGADVNAQDKSGKTPADLAADAGHDDIAEVLQKLN
Regarding B2, the Kd came out at 2.25 nM.

B3: DARPin® protein #25 (designed binder)
chain: MRGSHHHHHHGSDLGKKLLEAARAGQDDEVRELLKAGADVNAKDEWGETPLHLAAWKGHLEIVEVLLKAGADVNAKDSIGITPLHVAAHHGHLEIVEVLLKAGADVNAKDKWGRTPLHLAALLGHLEIVEVLLKAGADVNAQDKSGKTPADLAADAGREDIAEVLQKLN
For the molecule B3, the Kd worked out at 1.56 nM.

B4: DARPin® protein #5 (designed binder)
chain: MRGSHHHHHHGSDLGKKLLEAARAGQDDEVRELLKAGADVNAKDQEHGSTPLHLAANYGHLEIVEVLLKAGADVNAKNWWGNTPLHLAAVYGHLEIVEVLLKAGADVNAKDNHGHTPLHLAAWYGHLEIVEVLLKAGADVNAQDKSGKTPADLAADAGHEDIAEVLQKAA
Consider B4, for which the dissociation constant (Kd) was found to be 0.35 nM.

B5: DARPin® protein #8 (designed binder)
chain: MRGSHHHHHHGSDLGKKLLEAARAGQDDEVRELLKAGADVNAKDRFGSTPLHIAAREGHLEIVEVLLKAGADVNAKDSWGATPLHIAAWRGHLEIVEVLLKAGADVNAKDRWGRTPLHIAAWTGHLEIVEVLLKACADVNAQDKSGKTPADLAADVGLEDIAEVLQKLN
Take B5: the equilibrium dissociation constant (Kd) was 0.02 nM.

B6: DARPin® protein #9 (designed binder)
chain: MRGSHHHHHHGSDLGEKLLHAAYYGQDDEVRILLAAGADVNAKDNIGVTPLHFAAYFGHLEIVEVLLKAGADVNAQDYYGKTPADLAAYHGHEDIAEVLQKLN
Turning to B6, the Kd was determined as 0.19 nM.

B7: DARPin® protein #10 (designed binder)
chain: MRGSHHHHHHGSDLGDKLLHAAYYGQDDEVRILLAAGADVNAKDNIGVTPLHFAAYFGHLEIVEVLLKAGADVNAQDYYGKTPADLAAYHGHEDIAEVLQKLN
Take B7: the Kd came out at 0.25 nM.

B8: DARPin® protein #14 (designed binder)
chain: MRGSHHHHHHGSDLGQKLLYAAFYGQDDEVRILLAAGADVNAKDFFGTTPLHWAAHAGHLEIVEVLLKAGADVNAKDQWGTTPLHYAAYYGHLEIVEVLLKAGADVNAQDDKGFTPADLAAIVGHEDIAEVLQKLN
Take B8: the Kd worked out at 0.51 nM.

B9: DARPin® protein #3 (designed binder)
chain: MRGSHHHHHHGSDLGRKLLQAAQLGQDDEVRELLKAGADVNAKDSRGITPLHVAAWQGHLEIVEVLLKASADVNAKDHAGITPLHLAAFLGHLEIVEVLLKAGADVNAQDQEGRTPADLAALQGHEDIAKVLQKLN
Turning to B9, the dissociation constant Kd worked out at 1.25 nM.

B10: DARPin® protein #1 (designed binder)
chain: MRGSHHHHHHGSDLGQKLLKAAQEGQDDEVRELLKAGADVNAKDLRGITPLHVAAWQGHLEIVEVLLKAGADVNAKDSKGETPLHLAAFRGHLEIVEVLLKAGADVNAQDQQGETPADLAALAGHVDIAEVLQKAA
As for B10, the Kd came to 0.47 nM.

B11: DARPin® protein #2 (designed binder)
chain: MRGSHHHHHHGSDLGKKLLVAANVGQDDEVRILLAAGADVNAKDYHGYTPLHHAATYGHLEIVEVLLKAGADVNAKDQTGLTPLHLAAAKGHLEIVEVLLKAGADVNAQDHHGYTPADLAAFVGHEDIAVVLQKLN
B11: the equilibrium dissociation constant (Kd) was found to be 0.86 nM.

B12: DARPin® protein #6 (designed binder)
chain: MRGSHHHHHHGSDLGKKLLVAANVGQDDEVRILLAAGADVNAKDYHGYTPLHHAATYGHLEIVEVLLKAGADVNAKDQTGLTPLHLAAAKGHLEIVEVLLKAGADVNAQDHHGYTPADLAAFVGHEDIAVVLQKLN
As for B12, the equilibrium dissociation constant (Kd) came out at 2.58 nM.
